{
  "source": "paper PMC7192543",
  "origin": "cited, not measured here",
  "key": {"[1]": {"biological_target": "OmpR~P (Escherichia coli) (UniProt P0AA16)"}, "OmpR (Escherichia coli)": {"biological_target": "OmpR (Escherichia coli) (UniProt P0AA16)", "assay": "fluorescence anisotropy"}},
  "data": [
    {"substance": "EnvZ (from UniProt P0AEJ4)", "values": [
      {"measurement": "Kd", "setting": "[1]", "result": "> 5000", "unit": "nM"}
    ]},
    {"substance": "EnvZ cytoplasmic domain (EnvZc) (from UniProt P0AEJ4)", "values": [
      {"measurement": "Kd", "setting": "OmpR (Escherichia coli)", "result": 425, "unit": "nM"}
    ]}
  ]
}
